The values that follow come from publication PMC4464401, “Biochemical properties and yields of diverse bacterial laccase-like multicopper oxidases expressed in Escherichia coli” (Scientific Reports, 2015).

Holding throughout (experiment): spectrophotometric oxidation, Michaelis-Menten fit with uncompetitive substrate inhibition
One data set has as its target T1, B. coagulans LMCO (CotA) (Heyndrickxia coagulans, UniProt A0AAN0WB15).
T1 construct: gene SB48_HM08orf01352
T1 sequence (A0AAN0WB15 1-522): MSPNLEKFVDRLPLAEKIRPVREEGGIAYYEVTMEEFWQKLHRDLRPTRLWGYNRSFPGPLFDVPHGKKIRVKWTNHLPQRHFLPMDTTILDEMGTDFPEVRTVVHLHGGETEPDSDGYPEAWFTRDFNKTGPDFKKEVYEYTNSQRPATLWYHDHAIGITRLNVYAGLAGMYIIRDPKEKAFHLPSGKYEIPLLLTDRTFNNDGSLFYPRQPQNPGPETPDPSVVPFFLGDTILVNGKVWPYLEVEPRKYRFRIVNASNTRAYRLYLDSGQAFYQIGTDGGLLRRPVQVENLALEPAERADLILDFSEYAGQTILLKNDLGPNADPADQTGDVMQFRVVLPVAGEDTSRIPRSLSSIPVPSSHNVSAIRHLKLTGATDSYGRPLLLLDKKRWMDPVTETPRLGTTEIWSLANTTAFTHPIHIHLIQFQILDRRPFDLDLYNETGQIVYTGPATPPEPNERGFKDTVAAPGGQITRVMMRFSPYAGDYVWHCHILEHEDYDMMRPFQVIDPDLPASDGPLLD
The class given is biochemical. To be noted: 30 °C. An excerpt:
spectrophotometric oxidation, Michaelis-Menten fit with uncompetitive substrate inhibition on B. coagulans LMCO (CotA)

Substrate in data set [1]: COc1cccc(OC)c1O
Format: biochemical, Shouchella clausii. To be noted: pH 8.0, McIlvaine buffer, 30 °C, pH 8.0. An excerpt: (§1) spectrophotometric oxidation, Michaelis-Menten fit with uncompetitive substrate inhibition on B. clausii LMCO (CotA)

Substrate in data set [2]: CCn1c(=NN=c2sc3cc(S(=O)(=O)O)ccc3n2CC)sc2cc(S(=O)(=O)O)ccc21
The class given is biochemical, Shouchella clausii. To be noted: pH 4.0, McIlvaine buffer, 30 °C, pH 4.0.
Source text: as §1

In the case of `COc1cccc(OC)c1O` [2,6-DMP, 2,6-dimethoxyphenol], the B. coagulans at B. coagulans LMCO (CotA) (pH 7.5, McIlvaine buffer) turned out to be 36 ± 9.8 mM.

On B. coagulans LMCO (CotA) (pH 4.0, McIlvaine buffer), `CCn1c(=NN=c2sc3cc(S(=O)(=O)O)ccc3n2CC)sc2cc(S(=O)(=O)O)ccc21` [ABTS, 2′-azino-bis(3-ethylbenzthiazoline-6-sulphonic acid)] came in with a B. coagulans of 0.94 ± 0.11 mM.

B1: B. clausii LMCO (CotA) (Shouchella clausii KSM-K16) (protein)
chain: MELEKFVDPMPIMKTAIPKKTSKDGDYYEIEMKEFSQKLHRDLNPTRLWGYDGQFPGPTIEVMRGKPARIKWMNNLPDTHFLPIDRSIHHVAHEPEVRTVVHLHGSETTPASDGYPEAWFTKDFAEVGSFFEQETYEYPNDQRAATLWYHDHAMGITRLNVYAGLSGLYIIRDPREEQLNLPKGEFDIPLLIQDRSFNDDGSLFYPAQPANPAPNLPNPSVLPFFVGDTILVNGKVWPYLQVEPRKYRFRILNGSNSRSYQLALDSEAPFYQIASDGGLLRRTVSLQAFDIRPAERIEAIIDFSKFEGQTITLKNNASTDATADVMQFQVVLPLSGEDTSIIPQNLSYIPSLQQNDVKRIRNLKISGTTDEYGRPLLLLNNKLWSDPVEEKPCLGTTEIWSFVNVTNVPHPMHIHLVQFQLLDHRAFNVELYNENGQIELVGPTIPPKINERGWKDTITAPAGQITRVIARFAPFSGYYVWHCHILEHEDYDMMRPFVVIDPKTEKERR
For the molecule B1, the Km (as a rule, the concentration of substrate that gives half-maximal velocity) was determined as 8.535 ± 2.394 mM in data set [1] and 0.132 ± 0.011 mM in data set [2]. For the same molecule, the figures for the kcat in data set [1] and in data set [2] were 65 ± 15.2 s⁻¹ and 90 ± 2.3 s⁻¹, respectively.
